Results: paper PMC13399505

Assays:
[1] = target: BUNV ∆7-Gc-HA (HA-tagged head/stalk-deleted Gc glycoprotein expressed by rBUNV-∆7-Gc-HA) (Bunyamwera orthobunyavirus); assay: affinity purification with mass spectrometry; A549 (mammalian) cells mock-infected or infected at MOI 1, 24 hpi; anti-HA immunoprecipitation of Gc-HA, TMTpro 16plex TMT-MS of the bead fractions, three biological repeats; abundances normalised to common Gc peptides
[2] = target: BUNV ∆7-Gc-HA (HA-tagged head/stalk-deleted Gc glycoprotein expressed by rBUNV-∆7-Gc-HA) (Bunyamwera orthobunyavirus); assay: affinity purification with mass spectrometry; C6/36 (insect) cells mock-infected or infected at MOI 1, 24 hpi; anti-HA immunoprecipitation of Gc-HA, TMTpro 16plex TMT-MS of the bead fractions, three biological repeats; abundances normalised to common Gc peptides

“BUNV nucleocapsid protein (NP) (from UniProt P16495 1-233) (natural protein)” gave a log2 fold change of NP precipitated, WT-Gc-HA over ∆7-Gc-HA (log2 fold change) [1] of 0.24 and a log2 fold change of NP precipitated, WT-Gc-HA over ∆7-Gc-HA (log2 fold change) [2] of 2.76.
